Values of other authors in doi:10.1101/429795.

Target: Cys164 (UniProt position 164, MYQQGCFAGGT)
Assay: chemical modification

Substance: Chalcone synthase (MsCHS; CHS2) (Medicago sativa)
- pKa: 5.5
